Experiments:
yeast cells = experiment: Drop spot growth assays on rapamycin and/or cerulenin plates; assay type: cell-based, Saccharomyces cerevisiae; details: low / sublethal doses combined
Experimental: Yeast cells (Saccharomyces cerevisiae) were cultured in liquid SC medium (1.7 g l^−1 yeast nitrogen base (cat. no. 1545, CONDA), 5 g l^−1 ammonium sulfate (cat. no. 4808211, MP Biomedicals), 20 g l^−1 glucose (cat. no. 1422, AppliChem), 2 g l^−1 amino acid dropout –His (D9520, US Biological) and 35 mg l^−1 histidine (A1341, AppliChem) at 30 °C to the exponential growth phase, unless otherwise stated in the figure legends. All yeast strains used in this study are listed in Supplementary Table 1.

[1] = target: TORC1 containing the N-terminally GFP-tagged Tor1 subunit (Saccharomyces cerevisiae) (UniProt P35169); experiment: MST; GFP–Tor1-containing TORC1 (7.5 nM) as fluorescent target, 16 twofold dilutions of Acc1 (highest 80 nM) or Fas1 (highest 20 nM); 50 mM HEPES NaOH pH 7.5, 150 mM NaCl; 30 °C; Monolith NT.115
TORC1 [2] = target: T1, TORC1 (Saccharomyces cerevisiae, UniProt P35169); experiment: MST binding affinity assays with fluorescent TORC1 (GFP–Tor1); details: for Kd: purified yeast proteins, GFP–Tor1-containing TORC1 7.5 nM, 30 °C, mean ± s.d., n = 3, read-out: Kd (binding to TORC1, MST); for Fraction bound transformed (MST, TORC1 target): Fig. 6d,e
T1 construct: made in house; host or cells: S. cerevisiae strain NIC005 ([RL170-2c] LEU2:GFP-TOR1)
Experimental: The MST experiments were performed using a Monolith NT.115 (Nanotemper Technologies). Purification of TORC1 containing the N-terminally GFP-tagged Tor1 subunit was carried out as described previously. For the protein–protein interaction experiments, GFP–Tor1-containing TORC1 (7.5 nM) was mixed with a series of twofold dilutions (a total of 16 samples) of Acc1 (highest concentration, 80 nM) or Fas1 (highest concentration, 20 nM) purified from yeast through TAP-tag immuno-enrichment with rabbit IgG-coated magnetic beads and subsequent TEV cleavage in elution buffer (50 mM HEPES NaOH pH 7.5 and 150 mM NaCl) for 1 h at 18 °C. The samples were loaded into Monolith NT.115 capillaries and MST measurements were performed using 80% laser power and medium MST power setting at 30 °C. For the small molecule–protein interaction experiments, GFP–Tor1-containing TORC1 (7.5 nM) was mixed with a series of twofold dilutions (a total of 16 samples) of Mal-CoA (M4263, Sigma-Aldrich; highest concentration, 5 mM) dissolved in 50 mM HEPES pH 7.5. The samples were loaded into Monolith NT.115 capillaries and MST measurements were performed using 80% laser power and medium MST power setting at 30 °C. The experiments were performed in triplicate and data were fitted using the Kd model of the MO.Affinity Analysis software (Nanotemper Technologies). The signal-to-noise ratio represents the response amplitude divided by the noise of the measurement. The Kd value was obtained by plotting the bound fraction against the log-transformed ligand concentration.

TORC1 [3] = target: T1, TORC1; experiment: as above
[4] = tested on: intracellular TAG and palmitate (C16:0) levels; experiment: TAG and palmitate (C16:0) measurements by LC-HRMS; assay type: cell-based, human; details: ED Fig. 5t; compared with BSA
Experimental: The intracellular levels of TAGs and palmitate (C16:0) were determined using liquid chromatography-high resolution mass spectrometry-based analysis. Briefly, cells were seeded in 10-cm dishes and treated as described in the ‘Mammalian cell culture treatments’ section. The cells were scraped in medium and collected by centrifugation (400g, 3 min). The pellets were then washed three times with 1 ml ice-cold PBS, snap frozen in liquid nitrogen and kept at −80 °C until further processing.
The samples were vortexed for 10 s immediately after the addition of the extraction buffer and then incubated for 30 min on an orbital shaker at 4 °C. The proteins were pelleted by centrifugation (10 min, 21,000g, 4 °C) and the supernatants were transferred to a clean 2-ml tube. […]
The lipid pellets were resuspended in 200 µl ultra-performance liquid chromatography (UPLC)-grade acetonitrile:isopropanol 70:30 (vol/vol). […] In both cases, the analysed mass range was in the range of m/z 150–1,500. […]
All samples were analysed in a randomized run order. […] For measurements of intracellular TAG abundance (Extended Data Fig. 5r), the sum of all values corresponding to the peak areas for the different individual TAGs was calculated for each sample.

[5] = titrated protein 4.88281e-9 M, Fig. 6d,e
[6] = titrated protein 3.90625e-8 M, Fig. 6d,e
[7] = titrated protein 1.5625e-7 M, Fig. 6d,e

T1 sequence (P35169 whole entry): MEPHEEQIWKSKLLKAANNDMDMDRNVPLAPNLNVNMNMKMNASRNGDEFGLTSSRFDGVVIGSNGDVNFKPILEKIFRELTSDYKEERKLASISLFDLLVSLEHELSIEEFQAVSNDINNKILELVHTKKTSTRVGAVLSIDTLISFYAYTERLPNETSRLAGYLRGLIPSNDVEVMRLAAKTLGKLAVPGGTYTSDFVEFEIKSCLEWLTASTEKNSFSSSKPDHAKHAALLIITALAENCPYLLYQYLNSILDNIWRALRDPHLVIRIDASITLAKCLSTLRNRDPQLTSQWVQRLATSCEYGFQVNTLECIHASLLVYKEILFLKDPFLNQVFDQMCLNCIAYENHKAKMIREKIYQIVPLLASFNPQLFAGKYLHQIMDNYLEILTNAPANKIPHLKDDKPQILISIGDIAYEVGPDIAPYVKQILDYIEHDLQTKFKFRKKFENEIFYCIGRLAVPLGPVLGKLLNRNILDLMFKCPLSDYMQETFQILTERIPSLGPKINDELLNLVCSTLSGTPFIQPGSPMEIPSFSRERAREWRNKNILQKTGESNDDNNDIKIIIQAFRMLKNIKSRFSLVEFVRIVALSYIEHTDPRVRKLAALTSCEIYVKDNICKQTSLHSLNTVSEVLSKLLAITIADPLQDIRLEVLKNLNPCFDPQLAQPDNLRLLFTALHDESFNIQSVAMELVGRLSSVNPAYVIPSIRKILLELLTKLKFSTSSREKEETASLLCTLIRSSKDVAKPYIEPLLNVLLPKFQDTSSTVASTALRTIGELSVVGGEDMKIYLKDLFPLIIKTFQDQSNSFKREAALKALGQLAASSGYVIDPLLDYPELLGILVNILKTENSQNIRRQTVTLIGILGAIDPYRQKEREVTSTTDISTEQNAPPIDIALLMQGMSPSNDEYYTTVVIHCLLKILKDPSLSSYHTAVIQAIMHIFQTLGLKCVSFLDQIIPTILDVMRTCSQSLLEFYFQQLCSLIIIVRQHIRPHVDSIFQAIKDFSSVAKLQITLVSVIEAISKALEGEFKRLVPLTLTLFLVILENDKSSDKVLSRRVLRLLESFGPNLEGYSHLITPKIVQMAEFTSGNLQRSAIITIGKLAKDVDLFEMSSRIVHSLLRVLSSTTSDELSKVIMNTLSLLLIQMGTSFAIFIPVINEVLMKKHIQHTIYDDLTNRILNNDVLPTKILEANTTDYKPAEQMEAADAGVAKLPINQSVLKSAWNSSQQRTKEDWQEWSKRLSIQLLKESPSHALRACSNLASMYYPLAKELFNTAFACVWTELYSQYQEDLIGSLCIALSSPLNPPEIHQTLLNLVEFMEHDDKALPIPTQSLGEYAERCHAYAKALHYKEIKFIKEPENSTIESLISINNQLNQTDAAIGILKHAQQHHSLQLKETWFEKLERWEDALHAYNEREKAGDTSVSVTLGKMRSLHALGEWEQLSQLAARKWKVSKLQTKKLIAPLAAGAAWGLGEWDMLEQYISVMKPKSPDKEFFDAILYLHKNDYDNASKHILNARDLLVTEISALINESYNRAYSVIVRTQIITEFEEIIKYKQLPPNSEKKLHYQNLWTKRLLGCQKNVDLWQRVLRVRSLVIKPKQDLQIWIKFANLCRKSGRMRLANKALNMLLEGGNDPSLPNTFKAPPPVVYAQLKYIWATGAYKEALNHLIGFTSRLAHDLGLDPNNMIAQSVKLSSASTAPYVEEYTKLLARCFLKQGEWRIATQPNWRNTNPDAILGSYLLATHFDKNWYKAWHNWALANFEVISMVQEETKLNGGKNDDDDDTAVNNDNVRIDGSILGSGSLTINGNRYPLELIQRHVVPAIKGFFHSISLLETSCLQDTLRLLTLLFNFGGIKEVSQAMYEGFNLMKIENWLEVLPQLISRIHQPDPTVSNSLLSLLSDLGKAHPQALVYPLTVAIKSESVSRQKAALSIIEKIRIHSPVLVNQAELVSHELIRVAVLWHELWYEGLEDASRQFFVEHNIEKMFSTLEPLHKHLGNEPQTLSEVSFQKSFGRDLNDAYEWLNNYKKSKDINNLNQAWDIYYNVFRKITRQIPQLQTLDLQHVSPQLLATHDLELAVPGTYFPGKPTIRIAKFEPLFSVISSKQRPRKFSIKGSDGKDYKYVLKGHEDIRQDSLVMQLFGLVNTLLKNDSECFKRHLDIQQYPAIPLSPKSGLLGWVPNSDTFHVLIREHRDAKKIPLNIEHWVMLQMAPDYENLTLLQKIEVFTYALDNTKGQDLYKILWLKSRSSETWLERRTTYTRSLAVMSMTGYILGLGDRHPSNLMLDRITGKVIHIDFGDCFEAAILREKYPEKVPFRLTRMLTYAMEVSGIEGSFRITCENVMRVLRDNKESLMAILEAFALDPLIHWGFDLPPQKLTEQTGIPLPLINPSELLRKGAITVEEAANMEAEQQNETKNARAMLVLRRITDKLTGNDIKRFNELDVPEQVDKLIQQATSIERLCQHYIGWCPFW
T1 sequence (Q08921 whole entry partner): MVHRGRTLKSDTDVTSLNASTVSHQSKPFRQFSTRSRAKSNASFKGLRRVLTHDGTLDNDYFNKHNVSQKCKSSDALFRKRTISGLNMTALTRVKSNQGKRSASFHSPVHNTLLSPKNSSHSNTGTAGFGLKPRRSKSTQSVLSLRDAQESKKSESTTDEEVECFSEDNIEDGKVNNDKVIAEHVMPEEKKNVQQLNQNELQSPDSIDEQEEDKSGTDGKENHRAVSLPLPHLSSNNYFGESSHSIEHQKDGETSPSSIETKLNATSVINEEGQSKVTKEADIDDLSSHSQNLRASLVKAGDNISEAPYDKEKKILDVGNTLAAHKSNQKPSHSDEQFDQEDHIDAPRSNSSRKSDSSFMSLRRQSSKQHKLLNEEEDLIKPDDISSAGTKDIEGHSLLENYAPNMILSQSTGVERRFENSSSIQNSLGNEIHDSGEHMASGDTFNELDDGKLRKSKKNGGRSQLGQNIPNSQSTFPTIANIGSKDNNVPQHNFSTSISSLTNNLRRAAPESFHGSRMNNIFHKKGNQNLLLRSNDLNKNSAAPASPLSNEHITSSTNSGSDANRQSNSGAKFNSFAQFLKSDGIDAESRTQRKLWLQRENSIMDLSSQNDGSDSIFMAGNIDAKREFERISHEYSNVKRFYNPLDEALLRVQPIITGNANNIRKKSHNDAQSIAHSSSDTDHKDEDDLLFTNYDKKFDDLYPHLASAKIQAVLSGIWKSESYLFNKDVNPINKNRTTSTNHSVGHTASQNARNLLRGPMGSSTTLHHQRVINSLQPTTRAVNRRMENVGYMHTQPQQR
T1 sequence (P38873 whole entry partner): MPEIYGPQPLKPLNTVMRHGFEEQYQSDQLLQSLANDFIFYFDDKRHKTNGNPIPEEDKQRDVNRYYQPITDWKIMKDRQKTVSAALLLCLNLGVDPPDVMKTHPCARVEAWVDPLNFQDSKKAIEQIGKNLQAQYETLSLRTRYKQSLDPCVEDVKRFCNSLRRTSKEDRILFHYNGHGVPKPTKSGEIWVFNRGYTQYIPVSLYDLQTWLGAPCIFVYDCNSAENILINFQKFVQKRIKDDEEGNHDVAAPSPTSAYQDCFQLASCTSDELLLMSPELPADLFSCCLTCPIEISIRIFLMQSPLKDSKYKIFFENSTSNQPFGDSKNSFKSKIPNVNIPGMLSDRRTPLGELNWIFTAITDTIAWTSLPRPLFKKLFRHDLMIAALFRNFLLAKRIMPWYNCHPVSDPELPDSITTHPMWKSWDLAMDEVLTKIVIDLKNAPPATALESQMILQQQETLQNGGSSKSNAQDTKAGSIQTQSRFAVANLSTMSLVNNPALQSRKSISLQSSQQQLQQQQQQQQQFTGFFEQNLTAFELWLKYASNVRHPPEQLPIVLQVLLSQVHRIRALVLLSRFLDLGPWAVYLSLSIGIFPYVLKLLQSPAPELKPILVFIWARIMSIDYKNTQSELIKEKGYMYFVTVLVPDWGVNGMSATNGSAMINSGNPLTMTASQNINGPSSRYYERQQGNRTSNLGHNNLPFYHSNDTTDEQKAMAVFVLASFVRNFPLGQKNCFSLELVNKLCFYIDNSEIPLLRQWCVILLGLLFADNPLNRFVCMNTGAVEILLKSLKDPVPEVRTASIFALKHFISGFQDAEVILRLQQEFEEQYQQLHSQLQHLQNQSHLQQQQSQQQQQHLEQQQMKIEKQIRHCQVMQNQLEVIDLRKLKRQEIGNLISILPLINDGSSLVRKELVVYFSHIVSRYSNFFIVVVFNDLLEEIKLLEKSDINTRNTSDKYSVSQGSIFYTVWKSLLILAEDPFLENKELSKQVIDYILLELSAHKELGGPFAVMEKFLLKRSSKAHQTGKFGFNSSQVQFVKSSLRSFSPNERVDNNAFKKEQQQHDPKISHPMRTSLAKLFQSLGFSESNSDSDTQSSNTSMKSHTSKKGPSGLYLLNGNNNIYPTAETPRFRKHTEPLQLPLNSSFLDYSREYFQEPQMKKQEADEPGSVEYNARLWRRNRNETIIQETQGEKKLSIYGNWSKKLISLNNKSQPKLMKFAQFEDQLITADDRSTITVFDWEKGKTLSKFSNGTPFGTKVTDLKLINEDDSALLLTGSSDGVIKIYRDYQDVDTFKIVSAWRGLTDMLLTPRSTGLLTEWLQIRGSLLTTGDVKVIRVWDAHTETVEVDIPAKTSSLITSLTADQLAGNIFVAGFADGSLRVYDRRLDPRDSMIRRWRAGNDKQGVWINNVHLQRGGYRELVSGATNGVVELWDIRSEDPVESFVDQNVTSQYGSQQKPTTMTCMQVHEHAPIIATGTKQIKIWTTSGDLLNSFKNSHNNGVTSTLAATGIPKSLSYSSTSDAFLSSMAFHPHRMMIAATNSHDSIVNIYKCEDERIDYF
T1 sequence (P41318 whole entry partner): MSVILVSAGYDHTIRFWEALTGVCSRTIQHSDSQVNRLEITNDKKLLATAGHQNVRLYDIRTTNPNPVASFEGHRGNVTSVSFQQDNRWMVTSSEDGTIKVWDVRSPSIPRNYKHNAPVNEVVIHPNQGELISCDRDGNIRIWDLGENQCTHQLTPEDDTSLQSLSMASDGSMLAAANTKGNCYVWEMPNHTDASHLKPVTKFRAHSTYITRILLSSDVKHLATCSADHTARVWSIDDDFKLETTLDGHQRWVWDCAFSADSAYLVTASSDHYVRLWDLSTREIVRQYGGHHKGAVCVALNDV

Molecule	Kd [1]	Kd (TORC1 [2])	Fraction bound transformed (MST, TORC1 target) (TORC1 [2]; titrated protein 2.44141e-9 M)	Fraction bound transformed (MST, TORC1 target) (TORC1 [2]; titrated protein 9.76563e-9 M)	Fraction bound transformed (MST, TORC1 target) (TORC1 [2]; titrated protein 1.95313e-8 M)	Fraction bound transformed (MST, TORC1 target) (TORC1 [2]; titrated protein 7.8125e-8 M)	Fraction bound transformed (MST, TORC1 target) (TORC1 [2]; titrated protein 3.125e-7 M)	Fraction bound transformed (MST, TORC1 target) (TORC1 [2]; titrated protein 6.25e-7 M)	Fraction bound transformed (MST, TORC1 target) (TORC1 [2]; titrated protein 1.25e-6 M)	Fraction bound transformed (MST, TORC1 target) (TORC1 [2]; titrated protein 2.5e-6 M)	Fraction bound transformed (MST, TORC1 target) (TORC1 [2]; titrated protein 5e-6 M)	Fraction bound transformed (MST, TORC1 target) (TORC1 [2]; titrated protein 1e-5 M)	Fraction bound transformed (MST, TORC1 target) (TORC1 [2]; titrated protein 2e-5 M)	Fraction bound transformed (MST, TORC1 target) (TORC1 [3]; [5])	Fraction bound transformed (MST, TORC1 target) (TORC1 [3]; [6])	Fraction bound transformed (MST, TORC1 target) (TORC1 [3]; [7])	other results
CO[C@H]1C[C@@H]2CC[C@@H](C)[C@@](O)(O2)C(=O)C(=O)N2CCCC[C@H]2C(=O)O[C@H]([C@H](C)C[C@@H]2CC[C@@H](O)[C@H](OC)C2)CC(=O)[C@H](C)/C=C(\C)[C@@H](O)[C@@H](OC)C(=O)[C@H](C)C[C@H](C)/C=C/C=C/C=C/1C [rapamycin]																	combined effect of rapamycin and cerulenin on yeast growth (yeast cells): additive effect
Acc1 purified from yeast (from UniProt Q00955 1-2233) (enzyme)	0.0491 µM																
Acc1: yeast acetyl-CoA carboxylase purified from yeast through TAP-tag immuno-enrichment		0.0491 ± 0.0283 µM	0.1107	-0.03249	0.3896	0.8094	0.5572	0.7617	0.8055	0.9274	1.054	1.011	0.9376	0.03811	0.4481	0.735	Fraction bound transformed (MST, TORC1 target) (TORC1 [2]; titrated protein 4e-5 M): 1.262; Fraction bound transformed (MST, TORC1 target) (TORC1 [2]; titrated protein 8e-5 M): 1.2067
BSA-C16:0																	C16:0 (peak area), Mean [4]: 531779
Fas1 purified from yeast (from UniProt P07149 1-2051) (enzyme)	0.0237 µM																
Fas1: yeast FA synthase subunit purified from yeast through TAP-tag immuno-enrichment		0.0237 ± 0.0154 µM	0.1633	0.4832	0.1917	0.6873	0.978	1.128	1.25	1.151	0.8443	0.9239	0.8697	0.2698	0.7564	0.5063	Fraction bound transformed (MST, TORC1 target) (TORC1 [3]; titrated protein 1.2207E-09 M, Fig. 6e): -0.03697; Fraction bound transformed (MST, TORC1 target) (TORC1 [3]; titrated protein 6.1035E-10 M, Fig. 6e): -0.1692
